# Measured values published in article PMC5797297, “92R Monoclonal Antibody Inhibits Human CCR9^+ Leukemia Cells Growth in NSG Mice Xenografts” (Frontiers in Immunology, 2018).
# Changes are numbered by the printed parent chain.
# T1: peptide hCCR9 (10–30) (Homo sapiens (Human)., UniProt P51686-1)
# T1 construct: human CCR9 isoform A, residues 10-30; source: synthetic peptide
# T1 chain: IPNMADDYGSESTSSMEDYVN
# T2: peptide hCCR9 (13–30), corresponding to the N-terminus of the B isoform (Homo sapiens, UniProt P51686-1)
# T2 construct: human CCR9, residues 13-30 on the numbering of isoform A (the B isoform starts in M13 of hCCR9-A); source: synthetic peptide
# T2 chain: MADDYGSESTSSMEDYVN
# T3: synthetic peptide hCCR9A aa 2–22 with an additional N-terminal cysteine (Homo sapiens (Human).)
# T3 construct: additional cysteine residue at the N terminus; human CCR9 isoform A, residues 2-22; Amine-coupled to a CM5 chip for the kinetic SPR; also called hCCR9 (2–22); source: synthetic peptide
# T3 chain: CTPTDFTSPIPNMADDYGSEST
# T4: hCCR9(2–22) synthetic peptide (coat of the ELISA; competitor in SPR) (Homo sapiens, CCR9 isoform A, UniProt P51686)
# T4 construct: human CCR9 isoform A, residues 2-22; May be the same peptide as m5; also called hCCR9 (aa 2–22) synthetic peptide; peptide hCCR9 (2–22); source: synthetic peptide
# T4 chain: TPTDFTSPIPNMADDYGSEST
# B1: 92R, mouse anti-human CCR9 monoclonal antibody (IgG2a) (antibody, V domains shown)
# VH: EVKLEESGGGLVQPGGSMKLSCVASGFTFNKFWMNWVRQSPEKGLEWVAEIRLKSNNYATHYAESVKGRFTISRDDSKSSVYLQMNNLRAEDTGIYYCASDGWFAYWGQGTLVTVSA
# VL: DVVMTQTPLSLPVSLGDQASISCRSSQSLVHSNGNTYLNWCLQRPGQSPKSLIYKVSNRFSGVPDRFSGSGSGTDFTLKISRVEAEDLGVYFCSQSTHFPRTFGGGTKLEIK
# notes: heavy chain variable region of 92R; mouse IgG2a heavy chain constant region (isotype as stated); light chain variable region of 92R; light chain constant region; IgG2a; also called 92R mAb; anti-hCCR9 92R; source: mouse hybridoma, mAb purified from culture supernatants
# B2: 91R, mouse anti-human CCR9 monoclonal antibody (IgG2b) (antibody, V domains shown)
# VH: B1 VH with E6D, G16R, N30S, K31N, A90T, A99T
# VL: DVVMTQTPLSLPVSLGDQTSISCRSSQSLLHSNGNTYVQWYLRKPGQSPKLLIYKVSNRFPGVPDRFSGSGSGTDFTFKISRVEAEDLGVYFCAQSTHVPRTFGGGTKLEIK
# notes: heavy chain variable region of 91R; mouse IgG2b heavy chain constant region (isotype as stated); light chain variable region of 91R; light chain constant region; IgG2b; also called 91R mAb; anti-hCCR9 91R; source: mouse hybridoma, mAb purified from culture supernatants
# Assays:
# [1] = target: T1, peptide hCCR9 (10–30); experiment: SPR; competition: biotin-K-hCCR9A(2–19) captured on a streptavidin (SA) chip; mAb at 10 nM preincubated 30 min with competitor peptide (0.01–1 µM; 1 µM in Figure 6C,D); HBS-EP pH 7.4; conditions: both partners purified
# [2] = target: T2, peptide hCCR9 (13–30), corresponding to …; experiment: as above; conditions: both partners purified
# [3] = target: T3, synthetic peptide hCCR9A aa 2–22 with …; experiment: SPR; Biacore 3000; Cys-hCCR9A(2–22) peptide amine-coupled at low density to a CM5 chip; mAb as analyte at 0.41 to 33 nM; HBS-EP pH 7.4, 25°C, 30 µl/min; bivalent analyte model; apparent; conditions: both partners purified
# [4] = target: T4, hCCR9(2–22) synthetic peptide (coat of …); experiment: ELISA; competitive ELISA: hCCR9(2–22) peptide coated at 1 µg/ml in PBS overnight at 4°C; biotin-labeled mAb mixed with unlabeled mAb (2 µg/ml in PBS–0.5% BSA), 1 h at room temperature; peroxidase-labeled streptavidin; conditions: both partners purified
# [5] = target: T5, human chemokine receptor CCR9, A isoform, on stably transfected HEK-293 cells (Homo sapiens (Human)., UniProt P51686-1); experiment: flow cytometry on cells; 2 x 10^5 cells blocked with 40 µg/ml rat IgG, incubated with the primary mAb 30 min at 4°C in PBS pH 7.4 with 0.5% BSA, 1% FBS, 0.1% sodium azide; revealed with FITC- or PE-goat F(ab')2 anti-mouse IgG; conditions: one partner purified
# T5 construct: also called hCCR9-A; hCCR9-HEK-293; source: HEK-293, stably transfected (pCIneo-hCCR9), on cells
# [6] = target: T6, endogenous CCR9 on MOLT-4 human T-ALL cells (Homo sapiens (Human)., UniProt P51686); experiment: as above; conditions: one partner purified
# T6 construct: human CCR9 as expressed by MOLT-4 cells; also called CCR9^+ MOLT-4 cells; source: endogenous, on MOLT-4 cells
# T6 sequence (P51686 whole entry): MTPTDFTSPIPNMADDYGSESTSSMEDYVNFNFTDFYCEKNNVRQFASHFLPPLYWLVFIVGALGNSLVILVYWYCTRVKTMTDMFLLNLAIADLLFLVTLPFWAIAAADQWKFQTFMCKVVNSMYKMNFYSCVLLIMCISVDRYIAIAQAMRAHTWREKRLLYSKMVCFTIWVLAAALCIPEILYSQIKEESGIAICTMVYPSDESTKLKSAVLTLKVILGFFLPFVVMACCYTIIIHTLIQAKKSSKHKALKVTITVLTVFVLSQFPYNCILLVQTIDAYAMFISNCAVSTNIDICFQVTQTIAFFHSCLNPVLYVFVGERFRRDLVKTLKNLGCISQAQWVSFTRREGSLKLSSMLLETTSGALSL
# T5 sequence (P51686 whole entry, canonical isoform): as the sequence (P51686 whole entry) above
Binder,binding result [1],binding result [2],Kd [3] [nM],binding result [4],binding result [5],binding result [6]
B1,binds,no binding (tested: 1 µM),8.9,binds,binds,binds
B2,,no binding (tested: 1 µM),3.6,binds,,binds
